# Assay results: patent US12365710B2, “HMGB1 protein derivatives for the removal of biofilms” (RESEARCH INSTITUTE AT NATIONWIDE CHILDREN'S HOSPITAL, priority 2018, dated 2025)
# Columns and labels:
# serum TNF-alpha (TNF-α) = assay type: in vivo, mice; conditions: 24 h; for serum TNF elicited on their own: 0.2 nmol endotoxin free protein i.p., naive mice; for additional pro-inflammatory signaling in LPS-primed mice: 0.2 nmol i.p. with LPS 5 mg/kg
# Description: FIGS. 7A-7G: HMGB1 promotes clearance of S. cenocepaca from mice without inducing sepsis. C57BL/6 mice were challenged with 10^7 CFU intratracheally, and either simultaneously (prevention) or 24 h later (treatment) received 0.2 nmol of HMGB1 valiant. (FIG. 7A) Aggregates of B. cenocepacia were visible by fluorescence microscopy in lung sections probed with an α-B. cenocepacia antibody. For prevention, (FIG. 7B) bronchoalveolar lavage (BAL) collected 18 h post-inoculation (hpi) was analyzed for CFU. (FIG. 7C) Neutrophils in BAL were quantified by differential cell counting. (FIG. 7D) Lung tissue collected 72hpi was fixed, embedded, sectioned, and stained with hematoxylin & eosin (10× magnification). For treatment, 72hpi (FIG. 7E) CFUs were quantified in BAL. (FIG. 7F) Neutrophil recruitment was analyzed 24 h after intraperitoneal (i.p.) administration of HMGB1 valiants by fluorescence-activated cell sorting of peritoneal lavage stained with α-CD45, α-CD11b, and αLy-6G. (FIG. 7G) Serum TNF-α. was measured by ELISA in mice injected i.p. with 0.2 nmol HMGB1 valiants, 5 mg/kg LPS, or both. LoD: limit of detection. Bars represent SD. *P<0.05.
# Mice were monitored for 24 h for signs of sepsis, then serum TNF-alpha (TNF-α) levels were measured by ELISA as a surrogate for sepsis induction. […] It has been reported, that compared to our doses, >450-fold for B Box alone, or 4 doses of 2-fold greater amounts of rHMGB1 in 40 h with lipopolysaccharide (LPS)-primed mice20 are required to induce sepsis. In addition, these endotoxin-free polypeptides were tested for anti-biofilm activity in vitro as described above and found to maintain full function against UPEC and Bc biofilms (data not shown).
# S. aureus biofilm = test: in vitro disruption of established biofilms, CLSM and COMSTAT; assay type: cell-based; conditions: 800 nM rHMGB1 used (FIG. 5A)
# Description: (§1) FIGS. 5A-5E: Anti-biofilm effect of HMGB1 variants on high priority bacterial pathogens. Indicated HMGB1 variants or antibodies against DNABII proteins (α-1HFEc 1gG, 1 μM) were added at 24 h to the respective preformed bacterial biofilms, in vitro. After 16 h of Incubation, biofilms were stained with LIVE/DEAD®, then visualized via confocal laser scanning microscopy. Images were analyzed by COMSTAT to calculate average thickness and comparison to control was plotted. (FIG. 5A) Full-length HMGB1 isoforms (200 nM unless otherwise indicated) added to UPEC, B. cenocepacia, NTHI, or ESKAPE pathogens. 800 nM rHMGB1 and 200 nM mHMGB1 were added for S. aureus (ESKAPE). […] Statistical significance compared to control was assessed with unpaired t-tests, *P<0.05. […] Images were analyzed by COMSTAT to calculate average thickness and total biomass. […]
# (§2) HMGB1 disrupts pathogenic biofilms: To test the effect of HMGB1 on bacterial biofilms (FIG. 5), Applicant cloned (IMPACT®, NEB Ipswich, MA), expressed (in E. coli), and purified (heparin sepharose chromatography to >95% purity) tagless human recombinant HMGB1 (rHMGB1) and an engineered C45 S variant (mHMGB1) that mimics the reduced form of HMGB1. rHMGB1 readily forms an intramolecular disulfide bond between C23 and C45 that contributes to pro-inflammatory activity whereas mHMGB1 cannot. […]
# E. faecium biofilm = test: as above; assay type: cell-based; conditions: 800 nM rHMGB1, incubated 1 h (FIG. 5A)
# Description: as §1, §2
# NTHI biofilm = test: as above; assay type: cell-based, Nontypeable Haemophilus influenzae; conditions: 200 nM added at 24 h, 16 h exposure
# Description: (§3) FIGS. 5A-5E: Anti-biofilm effect of HMGB1 variants on high priority bacterial pathogens. Indicated HMGB1 variants or antibodies against DNABII proteins (α-1HFEc 1gG, 1 μM) were added at 24 h to the respective preformed bacterial biofilms, in vitro. After 16 h of Incubation, biofilms were stained with LIVE/DEAD®, then visualized via confocal laser scanning microscopy. Images were analyzed by COMSTAT to calculate average thickness and comparison to control was plotted. (FIG. 5A) Full-length HMGB1 isoforms (200 nM unless otherwise indicated) added to UPEC, B. cenocepacia, NTHI, or ESKAPE pathogens. 800 nM rHMGB1 and 200 nM mHMGB1 were added for S. aureus (ESKAPE). 800 nM rHMGB1, 800 nM mHMGB1, or 3.3 μM of α-1HFEc 1gG were added for E. faecium (ESKAPE) and were incubated for 1 h as opposed to 16 h to avoid potential degradation by E. faecium proteases. (FIG. 5B) Representative images of UPEC biofilms incubated with increasing concentrations of rHMGB1. (FIG. 5C) Individual domains of HMGB1 (200 nM) were tested for anti-biofilm activity as above (dotted line indicates control values). Bars represent the SEM. Statistical significance compared to control was assessed with unpaired t-tests, *P<0.05. […] (FIGS. 5D-5E) HMGB1 and variants disrupt preformed Klebsiella pneumoniae biofilms. rHMGB1, HMGB1 C45S (mHMGB1), bovine HMGB1 (bHMGB1), B box, B Box C106S (mB Box), A Box, and A+B Box were added (200 nM) at 24 h to preformed K. pneumoniae biofilms. After 16 h of incubation, biofilms were stained with LIVE/DEAD®, then visualized via confocal laser scanning microscopy. Images were analyzed by COMSTAT to calculate average thickness and total biomass. Error bars represent the SEM. ***P<0.0001; ns=not significant.
# (§4) HMGB1 disrupts pathogenic biofilms: To test the effect of HMGB1 on bacterial biofilms (FIG. 5), Applicant cloned (IMPACT®, NEB Ipswich, MA), expressed (in E. coli), and purified (heparin sepharose chromatography to >95% purity) tagless human recombinant HMGB1 (rHMGB1) and an engineered C45 S variant (mHMGB1) that mimics the reduced form of HMGB1. rHMGB1 readily forms an intramolecular disulfide bond between C23 and C45 that contributes to pro-inflammatory activity whereas mHMGB1 cannot. These HMGB1 isoforms were evaluated for ability to disrupt established biofilms (formed for 24 h prior to addition). After a 16 h exposure to a single dose of rHMGB1 (200 nM; ˜25-fold greater than typical sepsis serum concentration, but not able to directly induce sepsis), biofilms formed by a wide variety of high priority species were stained with LIVE/DEAD®, analyzed using confocal laser scanning microscopy (CLSM) and COMSTAT analysis and compared to control biofilms. […] Preliminary analysis of PTMs by LC-MS/MS analysis (MS Bioworks, LLC Ann Arbor, MI) indicated minimal modification of both rHMGB1 and nHMGB1 (<20% of the observed peptides had any given PTM, FIG. 1C). […] Thus, while there are intrinsic differences in sensitivity among pathogens, the biofilms formed by all of the tested high priority pathogens were susceptible to a single dose of these non-antimicrobial compounds.
# HMGB1 domain structure and anti-biofilm activity: Applicant then produced recombinant HMGB1 truncation variants, of 1) the A Box, a self-contained DNA-binding domain (residues 1-89); 2) an A-B Boxes construct (lacks the C tail; residues 1-185); and 3) the B Box (residues 80 to 176, FIGS. 1A and 1C). […]
# UPEC biofilm = test: as above; assay type: cell-based, Uropathogenic E. coli; conditions: for disruption of established UPEC biofilms: added at 24 h, 16 h exposure, 200 nM unless stated
# Description: as §3, §4
# HMGB1 domain structure and anti-biofilm activity: Applicant then produced recombinant HMGB1 truncation variants, of 1) the A Box, a self-contained DNA-binding domain (residues 1-89); 2) an A-B Boxes construct (lacks the C tail; residues 1-185); and 3) the B Box (residues 80 to 176, FIGS. 1A and 1C). […] Since only the B Box can modulate DNA bending, without being bound by theory, it was hypothesized that HMGB1 disrupts biofilms at least in part via DNA-binding/bending. As the B Box is reported to contain pro-inflammatory activity, mediated primarily through interactions with TLR4-MD2 that are dependent on residue C106, Applicant created a modified B Box variant (mB Box) with a C106S mutation (FIGS. 1A and 1C).
# B. cenocepacia biofilm = assay type: cell-based, Burkholderia cenocepacia; conditions: 200 nM added at 24 h, 16 h exposure
# Description: Indicated HMGB1 variants or antibodies against DNABII proteins (α-1HFEc 1gG, 1 μM) were added at 24 h to the respective preformed bacterial biofilms, in vitro. After 16 h of Incubation, biofilms were stained with LIVE/DEAD®, then visualized via confocal laser scanning microscopy. Images were analyzed by COMSTAT to calculate average thickness and comparison to control was plotted. (FIG. 5A) Full-length HMGB1 isoforms (200 nM unless otherwise indicated) added to UPEC, B. cenocepacia, NTHI, or ESKAPE pathogens. 800 nM rHMGB1 and 200 nM mHMGB1 were added for S. aureus (ESKAPE). 800 nM rHMGB1, 800 nM mHMGB1, or 3.3 μM of α-1HFEc 1gG were added for E. faecium (ESKAPE) and were incubated for 1 h as opposed to 16 h to avoid potential degradation by E. faecium proteases. […] (FIG. 5C) Individual domains of HMGB1 (200 nM) were tested for anti-biofilm activity as above (dotted line indicates control values). Bars represent the SEM. Statistical significance compared to control was assessed with unpaired t-tests, *P<0.05. […] After 16 h of incubation, biofilms were stained with LIVE/DEAD®, then visualized via confocal laser scanning microscopy. Images were analyzed by COMSTAT to calculate average thickness and total biomass. Error bars represent the SEM. ***P<0.0001; ns=not significant.
Molecule,serum TNF elicited on their own (serum TNF-alpha (TNF-α)),additional pro-inflammatory signaling in LPS-primed mice (serum TNF-alpha (TNF-α)),concentration needed to disrupt S. aureus biofilm (S. aureus biofilm),concentration needed to disrupt E. faecium biofilm (E. faecium biofilm),disruption of established NTHI biofilms (NTHI biofilm),disruption of established UPEC biofilms (UPEC biofilm),"average thickness of UPEC biofilm (UPEC biofilm; progressively higher concentrations of rHMGB1, up to 400 nM, monolayer) [μm]",disruption of established Bc biofilms (B. cenocepacia biofilm)
rHMGB1: tagless human recombinant full length HMGB1 (1-215) expressed in E. coli,"neither rHMGB1, B Box, nor mB Box elicited detectable TNF",none induced additional pro-inflammatory signaling,required a higher (albeit non-bactericidal) concentration,required a higher (albeit non-bactericidal) concentration,not as responsive,disrupted a UPEC biofilm in a dose-dependent manner,~1,
"B-linker Box: HMGB1 B Box with N- and C-terminal linker (80-179; 80 to 176 in b258), 97 amino acid (protein, UniProt P09429 80-179, looked up, fragment) PPKGETKKKFKDPNAPKRPPSAFFLFCSEYRPKIKGEHPGLSIGDVAKKLGEMWNNTAADDKQPYEKKAAKLKEKYEKDIAAYRAKGKPDAAKKGVVKAE","neither rHMGB1, B Box, nor mB Box elicited detectable TNF",none induced additional pro-inflammatory signaling,,,retained full anti-biofilm activity,retained full anti-biofilm activity,,retained full anti-biofilm activity
